Our source for the Relative cAMP EC50, cAMP Rel EC50, nM (1% HSA) and cAMP Rel EC50 (in the presence of 1% HSA) values is patent US20240270821A1, “GIP/GLP1/GCG TRI-RECEPTOR AGONISTS AND USES THEREOF” (priority 2023, published 2024).

Common to all, as to assay: cell-based or functional assay
Test [1] has as its target hGLP-1R (Homo sapiens, UniProt P43220).
The target in test [2] is T1, human GIP receptor (human) (UniProt P48546).
T1 sequence (looked up): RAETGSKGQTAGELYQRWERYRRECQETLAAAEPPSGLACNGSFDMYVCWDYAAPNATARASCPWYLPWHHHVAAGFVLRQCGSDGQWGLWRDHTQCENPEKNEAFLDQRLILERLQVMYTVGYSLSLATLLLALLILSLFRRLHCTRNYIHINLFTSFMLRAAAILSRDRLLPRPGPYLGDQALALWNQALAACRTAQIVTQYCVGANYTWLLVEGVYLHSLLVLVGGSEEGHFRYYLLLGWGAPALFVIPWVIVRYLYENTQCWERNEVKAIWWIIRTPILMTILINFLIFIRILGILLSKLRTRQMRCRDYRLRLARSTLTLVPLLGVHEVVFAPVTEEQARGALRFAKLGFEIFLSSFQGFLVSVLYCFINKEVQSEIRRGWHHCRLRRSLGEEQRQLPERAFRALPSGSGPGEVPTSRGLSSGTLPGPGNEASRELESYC

The target in test [3] is human glucagon receptor (human) (UniProt P47871).
Chain of human glucagon receptor (human) (P47871 26-477): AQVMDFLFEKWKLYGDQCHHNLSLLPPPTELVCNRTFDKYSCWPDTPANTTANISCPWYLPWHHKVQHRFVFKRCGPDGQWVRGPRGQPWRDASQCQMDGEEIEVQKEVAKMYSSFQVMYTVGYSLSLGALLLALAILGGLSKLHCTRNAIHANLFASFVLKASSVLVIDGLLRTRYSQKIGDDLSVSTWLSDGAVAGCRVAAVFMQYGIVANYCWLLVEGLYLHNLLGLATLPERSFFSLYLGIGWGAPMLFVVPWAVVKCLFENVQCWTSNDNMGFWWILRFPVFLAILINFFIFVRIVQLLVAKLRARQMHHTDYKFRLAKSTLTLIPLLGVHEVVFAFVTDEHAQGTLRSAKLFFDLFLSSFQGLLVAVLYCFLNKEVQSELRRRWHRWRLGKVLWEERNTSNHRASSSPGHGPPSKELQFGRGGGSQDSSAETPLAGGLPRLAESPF

Chain of hGLP-1R (P43220 24-463): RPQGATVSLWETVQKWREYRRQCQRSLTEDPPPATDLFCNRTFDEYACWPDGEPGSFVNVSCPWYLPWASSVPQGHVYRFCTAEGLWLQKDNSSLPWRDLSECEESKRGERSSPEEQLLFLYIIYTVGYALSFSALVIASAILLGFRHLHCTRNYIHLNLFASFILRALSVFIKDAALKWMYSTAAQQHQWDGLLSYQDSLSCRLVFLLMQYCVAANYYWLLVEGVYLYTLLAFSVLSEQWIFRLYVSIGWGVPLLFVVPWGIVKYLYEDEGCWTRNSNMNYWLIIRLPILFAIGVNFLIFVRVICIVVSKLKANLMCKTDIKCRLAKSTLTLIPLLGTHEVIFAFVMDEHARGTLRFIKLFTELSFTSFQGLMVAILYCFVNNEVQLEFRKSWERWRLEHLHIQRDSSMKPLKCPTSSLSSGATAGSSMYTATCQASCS

B1: Example 1010 (peptide)
chain: YXQGTFTSDXSXXLDKKAQXAFIEYLIAGGPSSGAPPPSESE
modifications: not fully specified; synthetic construct; SITE 2: note = 2-Aminoisobutyric Acid; SITE 10: note = 3-(4-Pyridyl)-L-alanine; SITE 12: note = L-ornithine; SITE 13: note = alpha-methyl-leucine; SITE 17: note = Lysine is chemically modified through conjugation of the epsilon-amino group of the Lysine side chain with (gamma-Gl)
As for B1, the Relative cAMP EC50 in test [1] came out at 2.89 nM; in test [2], 0.159 nM; in test [3], 4.5 nM. Further, the cAMP Rel EC50, nM (1% HSA) in test [1] is 218 nM; in test [2], 15.1 nM; in test [3], 214 nM.

B2: Example 1009 (peptide)
chain: YXQGTFTSDXSXXLDKKAQXAFIEYLIAGGPSSGAPPPSGSE
modifications: synthetic construct; SITE 2: note = 2-Aminoisobutyric Acid; SITE 10: note = 3-(4-Pyridyl)-L-alanine; SITE 12: note = L-ornithine; SITE 13: note = alpha-methyl-leucine; SITE 17: note = Lysine is chemically modified through conjugation of the epsilon-amino group of the Lysine side chain with (gamma-Gl)
In the case of B2, the Relative cAMP EC50 in test [1] was found to be 2.1 nM; in test [2], 0.13 nM; in test [3] it was 4.21 nM. For the same molecule, the cAMP Rel EC50, nM (1% HSA) was 174 nM in test [1], 9.72 nM in test [2] and 268 nM in test [3].

B3: Example 1022 (peptide)
chain: YXQGTFTSDXSQXLDXKAQXAFIEYLIEAGPSSGAPPPSGSE
modifications: not fully specified; Aib, 4Pal, αMeL, Orn, Me4Pal, acylated K, C-terminal amide; synthetic construct; SITE 2: note = 2-Aminoisobutyric Acid; SITE 10: note = 3-(4-Pyridyl)-L-alanine; SITE 13: note = alpha-methyl-leucine; SITE 16: note = L-ornithine; SITE 17: note = Lysine is chemically modified through conjugation of the epsilon-amino group of the Lysine side chain with (2-[2-(2-
As to B3, the cAMP Rel EC50, nM (1% HSA) came to 203 nM in test [1], 27.9 nM in test [2] and 586 nM in test [3].

B4: Example 1011 (peptide)
chain: YXQGTFTSDXSXXLDXKAQXAFIEYLIAGGPSSGAPPPSGSE
modifications: non-natural residues; Lys acylated C18 diacid; C-terminal amide; synthetic construct; SITE 2: note = 2-Aminoisobutyric Acid; SITE 10: note = 3-(4-Pyridyl)-L-alanine; SITE 12: note = L-ornithine; SITE 13: note = alpha-methyl-leucine; SITE 16: note = L-ornithine; SITE 17: note = Lysine is chemically modified through conjugation of the epsilon-amino group of the Lys
B4: the cAMP Rel EC50, nM (1% HSA) in test [1] was 148 nM; in test [2] it was 13.5 nM; in test [3], 459 nM.

B5: Example 1012 (peptide)
chain: YXQGTFTSDXSXXLDXKAQXAFIEYLIAGGPSSGAPPPSESE
modifications: Aib, 4Pal, Orn, αMeL, Me4Pal; K (γGlu)2-C18 diacid; amide; synthetic construct; SITE 2: note = 2-Aminoisobutyric Acid; SITE 10: note = 3-(4-Pyridyl)-L-alanine; SITE 12: note = L-ornithine; SITE 13: note = alpha-methyl-leucine; SITE 16: note = L-ornithine; SITE 17: note = Lysine is chemically modified through conjugation of the epsilon-amino group of the Lys
As to B5, the cAMP Rel EC50, nM (1% HSA) came out at 223 nM in test [1], 15.9 nM in test [2] and 533 nM in test [3].

B6: Example 1007 (peptide)
chain: YXQGTFTSDXSQXLDXKAQXAFIEYLIAGGPSSGEPPPSGS
modifications: not fully specified; synthetic construct; SITE 2: note = 2-Aminoisobutyric Acid; SITE 10: note = 3-(4-Pyridyl)-L-alanine; SITE 13: note = alpha-methyl-leucine; SITE 16: note = L-ornithine; SITE 17: note = Lysine is chemically modified through conjugation of the epsilon-amino group of the Lysine side chain with (gamma-Gl)
As to B6, the Relative cAMP EC50 in test [1] turned out to be 0.668 nM; in test [2], 0.116 nM; in test [3], 5.34 nM. Also, the cAMP Rel EC50, nM (1% HSA) in test [1] came out at 95.1 nM; in test [2], 12 nM; in test [3], 636 nM.

B7: Example 1015 (peptide)
chain: YXQGTFTSDXSXXLDKKAQXAFIEXLIAGGPSSGAPPPEGS
modifications: non-natural residues (Aib, 4Pal, Orn, Me4Pal, αMeY); lipidated K; amide; synthetic construct; SITE 2: note = 2-Aminoisobutyric Acid; SITE 10: note = 3-(4-Pyridyl)-L-alanine; SITE 12: note = L-ornithine; SITE 13: note = alpha-methyl-leucine; SITE 17: note = Lysine is chemically modified through conjugation of the epsilon-amino group of the Lysine side chain with (gamma-Gl)
With B7, the cAMP Rel EC50, nM (1% HSA) was 92.4 nM in test [1], 9.08 nM in test [2] and 357 nM in test [3].

B8: Example 1013 (peptide)
chain: YXQGTFTSDXSXXLDXKAQXAFIEXLIEGGPSSGAPPPSGS
modifications: Aib, 4Pal, Orn, αMeL, Me4Pal, αMeY, (γGlu)2-C18 diacid, amide; synthetic construct; SITE 2: note = 2-Aminoisobutyric Acid; SITE 10: note = 3-(4-Pyridyl)-L-alanine; SITE 12: note = L-ornithine; SITE 13: note = alpha-methyl-leucine; SITE 16: note = L-ornithine; SITE 17: note = Lysine is chemically modified through conjugation of the epsilon-amino group of the Lys
With B8, the cAMP Rel EC50, nM (1% HSA) in test [1] came to 137 nM; in test [2] it was 22.6 nM; in test [3], 285 nM.

B9: Example 1014 (peptide)
chain: YXQGTFTSDXSXXLDKKAQXAFIEXLIAGGPSSGEPPPSGS
modifications: Aib, 4Pal, Orn, αMeL, Me4Pal, αMeY; γGlu2-C18 diacid Lys; amide; synthetic construct; SITE 2: note = 2-Aminoisobutyric Acid; SITE 10: note = 3-(4-Pyridyl)-L-alanine; SITE 12: note = L-ornithine; SITE 13: note = alpha-methyl-leucine; SITE 17: note = Lysine is chemically modified through conjugation of the epsilon-amino group of the Lysine side chain with (gamma-Gl)
For B9, the Relative cAMP EC50 in test [1] is 0.718 nM; in test [2], 0.0412 nM; in test [3], 3.62 nM. Moreover, the cAMP Rel EC50, nM (1% HSA) in test [1] stood at 86.4 nM; in test [2] it was 5.62 nM; in test [3] it was 277 nM.

B10: Example 6 (peptide)
chain: YXQGTFTSDFSKXLDKKAQXAFIEYLLAGGPSSGEPPPSGG
modifications: Aib, αMeL; Lys acylated; C-terminal amide; synthetic construct; SITE 2: note = 2-Aminoisobutyric Acid; SITE 13: note = alpha-methyl-leucine; SITE 17: note = Lysine is chemically modified through conjugation of the epsilon-amino group of the Lysine side chain with (2-[2-(2-Amino-ethoxy)-ethoxy]-acetyl)-(gamma-Glu)-CO-(CH2) 18-CO2H; SITE 20: n
B10: the Relative cAMP EC50 in test [1] was 1.95 nM; in test [2], 0.232 nM; in test [3], 6.89 nM. Further, the cAMP Rel EC50 (in the presence of 1% HSA) turned out to be 446 nM in test [1], 46.6 nM in test [2] and 1380 nM in test [3].

B11: Example 1016 (peptide)
chain: YXQGTFTSDXSQXLDXKAQXAFIEYLIEAGPSSGAPPPSGS
modifications: not fully specified; Aib, 4Pal, αMeL, Orn, Me4Pal, D-Ala; acylated Lys; C-terminal amide; synthetic construct; SITE 2: note = 2-Aminoisobutyric Acid; SITE 10: note = 3-(4-Pyridyl)-L-alanine; SITE 13: note = alpha-methyl-leucine; SITE 16: note = L-ornithine; SITE 17: note = Lysine is chemically modified through conjugation of the epsilon-amino group of the Lysine side chain with (2-[2-(2-
On to B11, for which the cAMP Rel EC50, nM (1% HSA) in test [1] came to 156 nM; in test [2] it was 30.6 nM; in test [3], 626 nM.

B12: Example 1019 (peptide)
chain: YXQGTFTSDXSQXLDXKAQXAFIEYLIEAGPSSGEPPPSGS
modifications: not fully specified; non-natural residues, (γGlu)2-C18 diacid lysine acylation, C-terminal amide; synthetic construct; SITE 2: note = 2-Aminoisobutyric Acid; SITE 10: note = 3-(4-Pyridyl)-L-alanine; SITE 13: note = alpha-methyl-leucine; SITE 16: note = L-ornithine; SITE 17: note = Lysine is chemically modified through conjugation of the epsilon-amino group of the Lysine side chain with (gamma-Gl)
Regarding B12, the results for the Relative cAMP EC50 in test [1], in test [2] and in test [3] were 1.33 nM, 0.169 nM and 4.36 nM, respectively. For the same molecule, the cAMP Rel EC50, nM (1% HSA) in test [1] came out at 161 nM; in test [2] it was 21.3 nM; in test [3] it was 579 nM.

B13: Example 1017 (peptide)
chain: YXQGTFTSDXSQXLDXKAQXAFIEYLIEAGPSSGAPPPSGS
modifications: not fully specified; Aib, 4Pal, αMeL, Orn, Me4Pal, D-Ala; acylated Lys; amide; synthetic construct; SITE 2: note = 2-Aminoisobutyric Acid; SITE 10: note = 3-(4-Pyridyl)-L-alanine; SITE 13: note = alpha-methyl-leucine; SITE 16: note = L-ornithine; SITE 17: note = Lysine is chemically modified through conjugation of the epsilon-amino group of the Lysine side chain with (gamma-Gl)
As to B13, the figures for the cAMP Rel EC50, nM (1% HSA) in test [1], in test [2] and in test [3] were 118 nM, 28.3 nM and 649 nM, respectively.
